We go through 2 variants from IntAct's records for PubMed 24500646.

To fix the notation:
B1: DDB1- and CUL4-associated factor 8 (Homo sapiens), Q5TAQ9 (parent)
chain: MSSKGSSTDGRTDLANGSLSSSPEEMSGAEEGRETSSGIEVEASDLSLSLTGDDGGPNRTSTESRGTDTESSGEDKDSDSMEDTGHYSINDENRVHDRSEEEEEEEEEEEEEQPRRRVQRKRANRDQDSSDDERALEDWVSSETSALPRPRWQALPALRERELGSSARFVYEACGARVFVQRFRLQHGLEGHTGCVNTLHFNQRGTWLASGSDDLKVVVWDWVRRQPVLDFESGHKSNVFQAKFLPNSGDSTLAMCARDGQVRVAELSATQCCKNTKRVAQHKGASHKLALEPDSPCTFLSAGEDAVVFTIDLRQDRPASKLVVTKEKEKKVGLYTIYVNPANTHQFAVGGRDQFVRIYDQRKIDENENNGVLKKFCPHHLVNSESKANITCLVYSHDGTELLASYNDEDIYLFNSSHSDGAQYVKRYKGHRNNATVKGVNFYGPKSEFVVSGSDCGHIFLWEKSSCQIIQFMEGDKGGVVNCLEPHPHLPVLATSGLDHDVKIWAPTAEASTELTGLKDVIKKNKRERDEDSLHQTDLFDSHMLWFLMHHLRQRRHHRRWREPGVGATDADSDESPSSSDTSDEEEGPDRVQCMPS

The assay covers variants of B1. Particulars: with ddb1_human DDB1, Q16531.
ddb1_human DDB1, Q16531, sequence (Q16531 whole entry): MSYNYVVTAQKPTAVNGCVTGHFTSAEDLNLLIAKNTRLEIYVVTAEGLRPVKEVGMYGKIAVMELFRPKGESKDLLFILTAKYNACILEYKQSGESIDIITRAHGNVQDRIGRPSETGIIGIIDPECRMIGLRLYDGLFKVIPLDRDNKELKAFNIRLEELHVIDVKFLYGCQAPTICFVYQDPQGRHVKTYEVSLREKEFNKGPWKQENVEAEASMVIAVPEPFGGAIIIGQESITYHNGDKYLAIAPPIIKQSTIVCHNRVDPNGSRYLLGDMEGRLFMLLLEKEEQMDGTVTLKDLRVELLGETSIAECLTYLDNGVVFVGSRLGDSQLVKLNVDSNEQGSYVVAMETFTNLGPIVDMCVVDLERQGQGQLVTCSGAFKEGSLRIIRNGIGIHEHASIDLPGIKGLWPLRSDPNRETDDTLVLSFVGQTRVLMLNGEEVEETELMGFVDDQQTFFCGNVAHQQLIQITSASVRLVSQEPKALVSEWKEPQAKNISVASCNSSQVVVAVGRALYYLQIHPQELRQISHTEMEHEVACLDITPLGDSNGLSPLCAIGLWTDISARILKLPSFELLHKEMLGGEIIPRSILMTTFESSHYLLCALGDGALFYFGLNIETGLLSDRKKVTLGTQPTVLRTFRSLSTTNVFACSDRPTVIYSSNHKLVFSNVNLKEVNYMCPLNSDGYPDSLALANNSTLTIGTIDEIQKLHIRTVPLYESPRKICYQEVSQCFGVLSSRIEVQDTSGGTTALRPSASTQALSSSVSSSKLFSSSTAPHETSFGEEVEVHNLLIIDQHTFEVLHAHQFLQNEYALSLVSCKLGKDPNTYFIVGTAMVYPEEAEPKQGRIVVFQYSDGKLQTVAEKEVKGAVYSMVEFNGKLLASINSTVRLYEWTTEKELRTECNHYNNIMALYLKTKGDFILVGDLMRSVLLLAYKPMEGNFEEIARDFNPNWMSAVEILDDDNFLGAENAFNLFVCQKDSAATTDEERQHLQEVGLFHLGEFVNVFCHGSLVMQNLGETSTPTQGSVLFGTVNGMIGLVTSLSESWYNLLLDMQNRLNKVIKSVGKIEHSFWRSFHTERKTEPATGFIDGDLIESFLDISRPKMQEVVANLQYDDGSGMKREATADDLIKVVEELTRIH
On to R317C, for which the “effect of a mutation on the interaction” value is “decreasing interaction strength”.
The entry for R314H is “decreasing interaction strength”.
